We go through one molecule from paper PMC12343972 (Nature Communications, 2025).

The series addresses T1, Rad50 WT (Saccharomyces cerevisiae, UniProt P12753 1-1312).
T1 sequence: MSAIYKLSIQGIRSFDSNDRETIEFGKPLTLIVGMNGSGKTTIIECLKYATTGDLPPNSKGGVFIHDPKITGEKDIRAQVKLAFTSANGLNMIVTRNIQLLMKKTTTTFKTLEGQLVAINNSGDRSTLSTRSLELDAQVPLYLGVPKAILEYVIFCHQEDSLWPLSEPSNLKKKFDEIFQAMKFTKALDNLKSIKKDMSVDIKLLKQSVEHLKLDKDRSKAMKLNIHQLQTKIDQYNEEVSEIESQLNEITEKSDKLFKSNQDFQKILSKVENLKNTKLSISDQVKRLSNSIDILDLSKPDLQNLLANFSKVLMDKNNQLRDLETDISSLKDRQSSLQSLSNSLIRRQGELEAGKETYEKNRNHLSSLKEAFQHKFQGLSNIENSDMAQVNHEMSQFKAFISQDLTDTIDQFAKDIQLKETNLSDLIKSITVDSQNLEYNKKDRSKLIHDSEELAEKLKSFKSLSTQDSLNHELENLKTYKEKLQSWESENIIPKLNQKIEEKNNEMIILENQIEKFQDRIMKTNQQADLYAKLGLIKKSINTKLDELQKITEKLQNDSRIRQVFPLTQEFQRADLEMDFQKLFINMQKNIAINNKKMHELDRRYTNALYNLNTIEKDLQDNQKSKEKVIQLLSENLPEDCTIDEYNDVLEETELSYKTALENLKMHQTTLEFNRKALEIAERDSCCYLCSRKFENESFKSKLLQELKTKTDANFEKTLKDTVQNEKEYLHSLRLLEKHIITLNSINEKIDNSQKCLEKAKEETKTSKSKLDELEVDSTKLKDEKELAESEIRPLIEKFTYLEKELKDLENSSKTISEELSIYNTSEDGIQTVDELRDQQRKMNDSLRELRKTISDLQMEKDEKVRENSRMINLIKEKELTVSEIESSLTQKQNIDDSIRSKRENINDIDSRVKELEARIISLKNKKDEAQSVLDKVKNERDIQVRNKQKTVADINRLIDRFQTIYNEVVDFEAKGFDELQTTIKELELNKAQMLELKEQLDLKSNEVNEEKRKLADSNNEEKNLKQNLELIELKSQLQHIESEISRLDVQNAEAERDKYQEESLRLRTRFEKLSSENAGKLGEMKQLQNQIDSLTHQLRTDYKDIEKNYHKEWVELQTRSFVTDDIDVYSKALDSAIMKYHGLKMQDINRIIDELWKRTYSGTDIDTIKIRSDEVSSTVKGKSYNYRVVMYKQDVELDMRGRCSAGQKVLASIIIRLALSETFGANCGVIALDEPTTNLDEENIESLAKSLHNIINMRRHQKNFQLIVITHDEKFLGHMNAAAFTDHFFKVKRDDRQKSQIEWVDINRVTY
The experiment in a line: EMSA.

B1: 83-mer dsDNA (EMSA) (dsDNA)
DNA 1: TTGATAAGAGGTCATTTTTGCGGATGGCTTAGAGCTTAATTGCTGAATCTGGTGCTGTAGCTCAACATGTTTTAAATATGCAA
DNA 2: TTGCATATTTAAAACATGTTGAGCTACAGCACCAGATTCAGCAATTAAGCTCTAAGCCATCCGCAAAAATGACCTCTTATCAA
As to B1, the binding result was “binds”.
